Results reported in paper PMC11699742.

Biological target: α-Synuclein (UniProt P37840)

Chain of DnaK from E. coli (P0A6Y8 whole entry): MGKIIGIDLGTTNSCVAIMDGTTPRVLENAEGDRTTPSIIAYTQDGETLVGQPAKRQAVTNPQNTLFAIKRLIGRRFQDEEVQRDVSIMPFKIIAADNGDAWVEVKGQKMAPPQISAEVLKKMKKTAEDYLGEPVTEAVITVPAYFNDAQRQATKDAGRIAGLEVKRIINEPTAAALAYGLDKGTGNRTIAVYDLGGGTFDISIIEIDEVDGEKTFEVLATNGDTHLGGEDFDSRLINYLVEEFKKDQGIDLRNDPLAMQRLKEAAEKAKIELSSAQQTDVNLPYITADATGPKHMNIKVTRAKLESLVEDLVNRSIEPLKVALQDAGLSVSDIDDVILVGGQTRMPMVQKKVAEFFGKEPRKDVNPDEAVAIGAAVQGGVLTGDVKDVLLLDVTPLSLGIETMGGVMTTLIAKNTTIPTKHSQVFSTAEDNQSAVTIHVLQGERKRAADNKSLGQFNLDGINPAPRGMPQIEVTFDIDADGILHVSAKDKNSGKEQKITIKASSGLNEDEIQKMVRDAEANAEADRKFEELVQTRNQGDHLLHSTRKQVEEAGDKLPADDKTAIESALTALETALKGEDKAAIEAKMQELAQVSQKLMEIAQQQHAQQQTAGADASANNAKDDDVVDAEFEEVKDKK

## DnaK from E. coli (from UniProt P0A6Y8 1-638) (natural protein)
  ThT fibrillation of 50 µM α-Syn monomer with 0.5 µM DnaK, with 2 mM ATP: relative decrease in vmax (1.32 h^-1 to 0.49 h^-1) and end signal (176,900–53,000): 64%
  ThT fibrillation of 50 µM α-Syn monomer with 0.5 µM DnaK, without ATP: relative decrease in vmax (0.99 h^-1 to 0.55 h^-1) and end signal (43,000-24,600): 45%
